Laboratory results reported in patent US20200095590A1, “TRANSCRIPTION SYSTEM” (AUTOLUS LIMITED, priority 2016, published 2020).

B1: EOMES: Eomesodermin transcription factor (SEQ ID No. 11), co-expressed with anti-CD19 CAR in T cells (protein, UniProt O95936 1-686, looked up)
Eomesodermin homolog: MQLGEQLLVSSVNLPGAHFYPLESARGGSGGSAGHLPSAAPSPQKLDLDKASKKFSGSLSCEAVSGEPAAASAGAPAAMLSDTDAGDAFASAAAVAKPGPPDGRKGSPCGEEELPSAAAAAAAAAAAAAATARYSMDSLSSERYYLQSPGPQGSELAAPCSLFPYQAAAGAPHGPVYPAPNGARYPYGSMLPPGGFPAAVCPPGRAQFGPGAGAGSGAGGSSGGGGGPGTYQYSQGAPLYGPYPGAAAAGSCGGLGGLGVPGSGFRAHVYLCNRPLWLKFHRHQTEMIITKQGRRMFPFLSFNINGLNPTAHYNVFVEVVLADPNHWRFQGGKWVTCGKADNNMQGNKMYVHPESPNTGSHWMRQEISFGKLKLTNNKGANNNNTQMIVLQSLHKYQPRLHIVEVTEDGVEDLNEPSKTQTFTFSETQFIAVTAYQNTDITQLKIDHNPFAKGFRDNYDSSHQIVPGGRYGVQSFFPEPFVNTLPQARYYNGERTVPQTNGLLSPQQSEEVANPPQRWLVTPVQQPGTNKLDISSYESEYTSSTLLPYGIKSLPLQTSHALGYYPDPTFPAMAGWGGRGSYQRKMAAGLPWTSRTSPTVFSEDQLSKEKVKEEIGSSWIETPPSIKSLDSNDSGVYTSACKRRRLSPSNSSNENSPSIKCEDINAEEYSKDTSKGMGGYYAFYTTP
modifications: co-expressed with anti-CD19 CAR
B2: FOXO1: Forkhead box protein O1 transcription factor (SEQ ID No. 12), co-expressed with anti-CD19 CAR in T cells (protein, listed as Homo sapiens)
chain: MAEAPQVVEIDPDFEPLPRPRSCTWPLPRPEFSQSNSATSSPAPSGSAAANPDAAAGLPSASAAAVSADFMSNLSLLEESEDFPQAPGSVAAAVAAAAAAAATGGLCGDFQGPEAGCLHPAPPQPPPPGPLSQHPPVPPAAAGPLAGQPRKSSSSRRNAWGNLSYADLITKAIESSAEKRLTLSQIYEWMVKSVPYFKDKGDSNSSAGWKNSIRHNLSLHSKFIRVQNEGTGKSSWWMLNPEGGKSGKSPRRRAASMDNNSKFAKSRSRAAKKKASLQSGQEGAGDSPGSQFSKWPASPGSHSNDDFDNWSTFRPRTSSNASTISGRLSPIMTEQDDLGEGDVHSMVYPPSAAKMASTLPSLSEISNPENMENLLDNLNLLSSPTSLTVSTQSSPGTMMQQTPCYSFAPPNTSLNSPSPNYQKYTYGQSSMSPLPQMPIQTLQDNKSSYGGMSQYNCAPGLLKELLTSDSPPHNDIMTPVDPGVAQPNSRVLGQNVMMGPNSVMSTYGSQASHNKMMNPSSHTHPGHAQQTSAVNGRPLPHTVSTMPHTSGMNRLTQVKTPVQVPLPHPMQMSALGGYSSVSSCNGYGRMGLLHQEKLPSDLDGMFIERLDCDMESIIRNDLMDGDTLDFNFDNVLPNQSFPHSVKTTTHSWVSG

What was measured:
[1] = biological target: streptavidin (Streptomyces avidinii, UniProt P22629); conditions: biotin mimicking peptide binding streptavidin; read-out: affinity; cited from earlier work
[2] = tested on: T cells; test: Phenotype assay: memory markers by flow cytometry on CAR-TF T cells after co-culture with CD19 positive SKOV3 target cells; format: cell-based; conditions: for CD62L expression / CD27 expression: co-expressed with CAR (HD37); for proportion of naive and central memory cells (CM): co-expressed with anti-CD19 CAR (HD37), day 0 (post-transduction) and day 7 (6 days after 24 hour co-culture), CD4+ and CD8+ subpopulations
Source text: A bicistronic construct was expressed in BW5 T cells as a single transcript which self-cleaves at the 2A site to yield a chimeric antigen receptor (CAR); and a transcription factor (TF). Control constructs were also generated which lack the 2A site and the transcription factor (“CAR-only”) or lack the CAR and 2A site (“TF-only”).
The CAR was an anti-CD19 CAR comprising an endodomain derived from CD3 zeta and from the co-stimulatory receptor 41BB.
T cells expressing the various CAR-TF combinations, together with the relevant CAR-only and TF-only controls were co-cultured with CD19 positive SKOV3 target cells for 24 hours before recovering and culturing the T cells until day 7. The expression of the following memory markers was analysed by flow cytometry at day 0 of the co-culture and day 7, to see whether cells expressing factors that bias them towards central memory are more nave post-transduction and remain more nave upon stimulation with antigen-bearing target cells.
Memory Markers—CCR7, CD45RA, CD62L, CD27
The cells were gated on CAR-expression (via RQR8 transduction marker) and various T cell and T-cell subset markers (CD3 and CD8) depending on the sub-population of interest.

[3] = 6 days after a 24 hour co-culture with target cells, CD4+ and CD8+ T cells

Chain of streptavidin (P22629 25-183): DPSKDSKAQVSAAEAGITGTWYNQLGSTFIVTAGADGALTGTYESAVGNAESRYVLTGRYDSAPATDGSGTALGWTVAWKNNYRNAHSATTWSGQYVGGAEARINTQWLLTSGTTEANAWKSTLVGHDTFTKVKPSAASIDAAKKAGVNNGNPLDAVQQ

Row | Molecule | Kd [1] | proportion of naive and central memory cells (CM) [2] | also measured
1 | biotin mimicking peptide DVEAWLGAR (SEQ ID NO: 27) (Biotin mimicking peptide, short nanotag) | 17 nM |  | 
2 | biotin mimicking peptide WSHPQFEK (SEQ ID NO: 29) [streptagII] | 72000 nM |  | 
3 | biotin mimicking peptide DVEAWLDERVPLVET (SEQ ID NO: 26) (Biotin mimicking peptide, long nanotag) | 3.6 nM |  | 
4 | Runx3 and CBFbeta: transcription factors Runx3 (SEQ ID No. 13) and CBF beta (SEQ ID No. 22), co-expressed with anti-CD19 CAR in T cells |  |  | CD62L expression ([2]; after transduction (day 0) and 6 days after the 24 hour co-culture): upregulation of CD62L
5 | biotin mimicking peptide CHPQGPPC (SEQ ID NO: 31) [ccstreptag] | 230 nM |  | 
6 | BACH2: Bach2 wild type transcription factor (SEQ ID No. 8), co-expressed with anti-CD19 CAR in T cells |  | increase in the proportion of nave and central memory cells (CM) | 
7 | BACH2 S520A: mutant Bach2 with S to A substitution at position 520 (SEQ ID No. 9), co-expressed with anti-CD19 CAR |  | increase in the proportion of nave and central memory cells (CM) | 
8 | B1 |  |  | CD27 expression [2, 3]: significant upregulation of CD27; CD62L expression [2, 3]: do not show significant up-regulation of CD62L
9 | B2 |  | greater proportion of nave and central memory cells (CM) | CD27 expression [2, 3]: upregulation of CD27, especially on CD8+ cells; CD62L expression [2, 3]: significant upregulation of CD62L
